Assay results as given in the supplement of paper PMC7125110.
± gives the standard error. Variants at the floor of the assay were thinned out.

B1: glmS ribozyme (parent)
chain: AUAAAAGCGCCAGAACUACAGAAAUGUAGUUGACGAGGAGGAGGUUUAUCGAAUUUUCGGCGGAUGCCUCCAAA

Variants of: B1
Assay: self-cleavage kobs at 2500 uM GlcN6P; higher = faster cleavage; RNA array
Details: with glucosamine-6-phosphate
Procedure, shortened: (§1)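 E. coli RNA polymerase transcribed barcoded ribozyme variants in situ on sequenced MiSeq chips, which were tracked via a hybridised Cy3 probe at 37 °C. Tiles were imaged over ~14 h after glucosamine-6-phosphate (40 μM to 10 mM) in HEPES/KCl/Mg(OAc)2 buffer was flowed in. Normalised per-tile medians were fit to one- or two-exponential decays for kobs, and kcat and KM came from weighted Michaelis–Menten fits.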

Q: For AUAAAAGCGCCGGCCCUACAGAAAUGUAGUUGACGAGGAGGAGGUUUAUCGAAUUUUCGGCGGAUGCCUCCAAA [A12G A14C A15C], which “self-cleavage kobs at 2500 uM GlcN6P” value is on record?
A: The value was 6.38e-05 ± 2.6e-05 s⁻¹.

Q: How did the “self-cleavage kobs at 2500 uM GlcN6P” value turn out when AUAAAAGCGCCAGAACUACAGAAAUGUAGUUGACGAGGAGGAGGUUUAUCGAAUUGUAGGCGGAUGCCUCAAAA [U56G C58A C71A] was run?
A: The value was 3.99e-05 ± 1.6e-05 s⁻¹.

Q: How did the “self-cleavage kobs at 2500 uM GlcN6P” value turn out when AUAAACGGGCCAGCACUACAGAAAUGUAGUUGACGAGGAGGAGGUUUCUCGAAUUUUCGGCGGAUGCCUCCAAA [A6C C8G A14C A48C] was run?
A: The value was < 1e-05 s⁻¹.

Q: How did the “self-cleavage kobs at 2500 uM GlcN6P” value turn out when AUAAAAGCGCCAGGUCUACAGAAAUGUAGUUGACGAGGAGGAGGUUUUUCGAAUUUUCGGCGGAUGCCUCCAAA [A14G A15U A48U] was run?
A: The value was 0.000128 ± 4.1e-05 s⁻¹.

Q: With AUAAAAGCGCCAGAACUACAGAAAUGUAGUUGGCGAGGAGGAGUUUUAUCGAAUUUUCGGCGUAUGCCUCCAAA [A33G G44U G63U] as the variant, how does the “self-cleavage kobs at 2500 uM GlcN6P” value read?
A: The value was < 1e-05 s⁻¹.

Q: How did the “self-cleavage kobs at 2500 uM GlcN6P” value turn out when AUAAAAGCGCUAGACCUACAGAAAUGUAGUUGACGAGGAGGAGGUUUGUCGAAUAUUCGGCGGAUGCCUCCAAA [C11U A15C A48G U55A] was run?
A: Its value is < 1e-05 s⁻¹.

Q: For AUAAAAGCGCCAGAACUACAGAAAUGUAGUUGUCGAGGCGGAGGUUUAUCGAAUUUUCGGCCGAUGCCUCCAAA [A33U A39C G62C], which “self-cleavage kobs at 2500 uM GlcN6P” value is on record?
A: The value was < 1e-05 s⁻¹.

Q: For AUAAAAGCCCCAGAACUACAGAAAUGUAGUUGACGAGGAGGAGGUUUAACAAAUUUUCGGCGGAUGCCUUAAAA [G9C U49A G51A C70U C71A], which “self-cleavage kobs at 2500 uM GlcN6P” value is on record?
A: The value was < 1e-05 s⁻¹.

Q: AUAAAAGCGCCAGAACUACAGAAAUGUAGUUGACGAGUAGGAGGUUUAUCGAAUUUUCGGCGGAAGCCUGCAAA [G38U U65A C70G] was tested. Which “self-cleavage kobs at 2500 uM GlcN6P” value did it give?
A: The value was 0.000107 ± 3.6e-05 s⁻¹.

Q: Which “self-cleavage kobs at 2500 uM GlcN6P” value does the source give for AUAAAAGCGCCAGUACUACAGAAAUGUAGUUGACGAGGAGGAGGUUCAUCGAAUUUUCGGGGGAUGCCUCCAAA [A14U U47C C61G] here?
A: Its value is < 1e-05 s⁻¹.

Q: How did the “self-cleavage kobs at 2500 uM GlcN6P” value turn out when AUAAACGCGCCAGAUCUACAGAAAUGUAGUUGACAAGGAUGAGGUUUAUCGAAUUUUCGGCGGAUGCCUCCAAA [A6C A15U G35A G40U] was run?
A: Its value is < 1e-05 s⁻¹.

Q: For AUAAAAGCGCCAGUACUACAGAAAUGUAGUUGACGAGGAGGAGGGUUAUCGACUUUUCGGCGGACGCCUCCAAA [A14U U45G A53C U65C], which “self-cleavage kobs at 2500 uM GlcN6P” value is on record?
A: Its value is < 1e-05 s⁻¹.

Q: Which “self-cleavage kobs at 2500 uM GlcN6P” value does the source give for AUAAAAGCGCCAGAACUACAGAAAUGUAGUUGACGAGGAGGAGGUUUAUCGAGUUUUCGGUGGAUGCGUCCAAA [A53G C61U C68G] here?
A: Its value is 6.94e-05 ± 2.7e-05 s⁻¹.

Q: AUAAAUGCGCCAGAACUACAGAAAUGUAGUUGACGGGGAGGAGGUCUAUCGGAUUUUCGGCGGAUGUCUCCAAA [A6U A36G U46C A52G C67U] was tested. Which “self-cleavage kobs at 2500 uM GlcN6P” value did it give?
A: The value was < 1e-05 s⁻¹.

Q: AUAAAAGCGCCGGAACUACAGAAAUGUAGUUGACGAGGAUGAGGUUUAUCGAAUUUUCGGCGGAUGUCUCCAAA [A12G G40U C67U] was tested. Which “self-cleavage kobs at 2500 uM GlcN6P” value did it give?
A: Its value is < 1e-05 s⁻¹.

Q: Which “self-cleavage kobs at 2500 uM GlcN6P” value does the source give for AUAAAAGCGCUAGAACUACAGAAAUGUAGUUGACGAGGAGGAGGUAUAUCGAAUUUUCGGCUGAUGCCUCCAAA [C11U U46A G62U] here?
A: The value was < 1e-05 s⁻¹.

Q: How did the “self-cleavage kobs at 2500 uM GlcN6P” value turn out when AUAAAGGCGCCAGAACUACAGAAAUGUAGUUGACGAGGAUGAGGUUUAUCGGUUUUUCGGCGGAUGCCUCCAAA [A6G G40U A52G A53U] was run?
A: Its value is < 1e-05 s⁻¹.

Q: Which “self-cleavage kobs at 2500 uM GlcN6P” value does the source give for AUAAACGCGCCAGGACUACAGAAAUGUAGUUGACAAGGAGGAGGUUUAUCGAAUUUACGGCGGAUCCUUCCAAA [A6C A14G G35A U57A G66C C68U] here?
A: The value was < 1e-05 s⁻¹.

Q: With AUAAAUGCGCCAGAACUACAGAAAUGUAGUUGACGAGGAGGAGGUUUAUCGAAUUUUCGGCGGAUGGCUCAAAA [A6U C67G C71A] as the variant, how does the “self-cleavage kobs at 2500 uM GlcN6P” value read?
A: The value was < 1e-05 s⁻¹.

Q: With AUAAAAGCGCCAGAACUACAGAAAUGUAGCUGACGAGGAGGAGGUUAAUCGAAUUUUCGGCGGAUGCCUACAAA [U30C U47A C70A] as the variant, how does the “self-cleavage kobs at 2500 uM GlcN6P” value read?
A: The value was 8.14e-05 ± 3.8e-05 s⁻¹.

Q: AUAAAAGCGCUAGAGCUACAGAAAUGUAUUUGACGAGGAGGAGGUUUAUCGAAUUUUCGGCGGAUGCCUCCAAA [C11U A15G G29U] was tested. Which “self-cleavage kobs at 2500 uM GlcN6P” value did it give?
A: The value was < 1e-05 s⁻¹.

Q: With AUAAAAGCGCCAGAACUACAGAAAUGUAGUUGACGAAGAAGAGGUUUAUCGAAUUAUCGGCGGAUGCCUCCAAA [G37A G40A U56A] as the variant, how does the “self-cleavage kobs at 2500 uM GlcN6P” value read?
A: Its value is 0.000109 ± 1.8e-05 s⁻¹.

Q: How did the “self-cleavage kobs at 2500 uM GlcN6P” value turn out when AUAAAAGCGCCAGAACUACAGAAAUGUAGUUGACGAAGAAGAGGUUUAUCGAAUUGUCGGCGGAUGCCUCCAAA [G37A G40A U56G] was run?
A: Its value is 5.62e-05 ± 1.8e-05 s⁻¹.

Q: Which “self-cleavage kobs at 2500 uM GlcN6P” value does the source give for AUAAAAGCGCCAUAACUACAGAAAUGUAGUCGACGAGGAGGAGUUUUAUCGAAUUUUCGGCGGUUGCCUCCAAA [G13U U31C G44U A64U] here?
A: Its value is < 1e-05 s⁻¹.

Q: AUAAAAGCGCCAGAACUACAGAAAUGUAGUUGACGAGGGGGAGUUUUAUCGACUUUUCGGCGGAUGCCUCCAAA [A39G G44U A53C] was tested. Which “self-cleavage kobs at 2500 uM GlcN6P” value did it give?
A: Its value is 0.000157 ± 4.5e-05 s⁻¹.

Q: How did the “self-cleavage kobs at 2500 uM GlcN6P” value turn out when AUAAAAGCGCCAGAACUACAGAAAUGUAUUUGACGAGGAGGAGGUUUAUCGAAUCUUCGCCGGAUGCGUCCAAA [G29U U55C G60C C68G] was run?
A: The value was < 1e-05 s⁻¹.

Q: For AUAAAAGCGCCAGAACUACAGAAAUGUAGUUGACGUGGAGGAGGUUUAUCGAAUUUUGGGCGGAUGCCUUCAAA [A36U C58G C70U], which “self-cleavage kobs at 2500 uM GlcN6P” value is on record?
A: Its value is 6.88e-05 ± 2.4e-05 s⁻¹.

Q: How did the “self-cleavage kobs at 2500 uM GlcN6P” value turn out when AUAAAAGCGCCAGAUCUACAGAAAUGUAGUUGACGAGGAGGAUGUUUAUCGAUUUUUCGGCGGAUGCUUCCAAA [A15U G43U A53U C68U] was run?
A: The value was 8.35e-05 ± 3.5e-05 s⁻¹.

Q: Which “self-cleavage kobs at 2500 uM GlcN6P” value does the source give for AUAAAAGGGCCAGAACUACAGAAAUGUAUUUGACGCGGAGGAGGUUUGUCGAAUUUUCGGCGGAUGCCUUCAAA [C8G G29U A36C A48G C70U] here?
A: Its value is < 1e-05 s⁻¹.

Q: Which “self-cleavage kobs at 2500 uM GlcN6P” value does the source give for AUAAAAGCGCCAGAACUACAGAAAUGUAGUUGACGAGGAGGAAGUUGAUCGAAUUUUCGGGGGAUGCCUCCAAA [G43A U47G C61G] here?
A: The value was < 1e-05 s⁻¹.

Q: Which “self-cleavage kobs at 2500 uM GlcN6P” value does the source give for AUAAAAGCACCAGGACUACAGAAAUGUAGUUGACGAGGAGUAGGUUUAUCGAAUUUUCGGCGGAUGCCUCCAAA [G9A A14G G41U] here?
A: Its value is < 1e-05 s⁻¹.

Q: With AUAAAAGCGCCAGAACUACAGAAAUGUAGUUGACGAGGAGGUUGUAUAUCGAAUUUUCGGCGGAUGCCUUCAAA [A42U G43U U46A C70U] as the variant, how does the “self-cleavage kobs at 2500 uM GlcN6P” value read?
A: Its value is 6.44e-05 ± 2.4e-05 s⁻¹.

Q: Which “self-cleavage kobs at 2500 uM GlcN6P” value does the source give for AUAAAAGCGCCUGAACUACAGAAAUGUAGUUGACGAGGAGGAGGUUUAUCGAAUUUUCGGCCGAUGCCUGCAAA [A12U G62C C70G] here?
A: The value was < 1e-05 s⁻¹.

Q: Which “self-cleavage kobs at 2500 uM GlcN6P” value does the source give for AUAAAAGCCCCAGAACUACAGAAAUGUAGUUGACGAGGAGGAGGUUUCUCCAAUUUUCGGCGGAUGCCUCCAAA [G9C A48C G51C] here?
A: The value was < 1e-05 s⁻¹.

Q: How did the “self-cleavage kobs at 2500 uM GlcN6P” value turn out when AUAAAAGCACCAGAACUACAGAAAUGUAGAUGACGAGGAGGAGGUUUAUCGAAUUUUCGGCGGAUGCCUCCAAA [G9A U30A] was run?
A: Its value is < 1e-05 s⁻¹.

Q: For AUAAAAGCGCCCGAACUACAGAAAUGUAGUUGACGAGGAGGAGGUAUAUCGAAUUUUCGGCGGAUGCCUCAAAA [A12C U46A C71A], which “self-cleavage kobs at 2500 uM GlcN6P” value is on record?
A: The value was 6.86e-05 ± 2.4e-05 s⁻¹.

Variants of: B1
Assay: self-cleavage kobs at 10000 uM GlcN6P; higher = faster cleavage; RNA array
Details: with glucosamine-6-phosphate
Procedure, shortened: as §1

Q: With AUAAAAGCGCCAGAACUACAGAAAUGUAGUUGACGAGGAGGAGGUUUAUCGAGUUUUCGGUGGAUGCGUCCAAA [A53G C61U C68G] as the variant, how does the “self-cleavage kobs at 10000 uM GlcN6P” value read?
A: The value was 4.37e-05 ± 1.2e-05 s⁻¹.
